According to patent US20200123576, “Platform for developing stable mammalian cell lines” (Icosagen Cell Factory OÜ, published 2020):

Target: BPV1 E2 protein (Bovine papillomavirus 1, UniProt P03122 P03122:1-410)
Experiment: cell_activity
Conditions: chain copies: 2

BPV1 E2 protein, sequence (P03122 whole entry, one chain of several): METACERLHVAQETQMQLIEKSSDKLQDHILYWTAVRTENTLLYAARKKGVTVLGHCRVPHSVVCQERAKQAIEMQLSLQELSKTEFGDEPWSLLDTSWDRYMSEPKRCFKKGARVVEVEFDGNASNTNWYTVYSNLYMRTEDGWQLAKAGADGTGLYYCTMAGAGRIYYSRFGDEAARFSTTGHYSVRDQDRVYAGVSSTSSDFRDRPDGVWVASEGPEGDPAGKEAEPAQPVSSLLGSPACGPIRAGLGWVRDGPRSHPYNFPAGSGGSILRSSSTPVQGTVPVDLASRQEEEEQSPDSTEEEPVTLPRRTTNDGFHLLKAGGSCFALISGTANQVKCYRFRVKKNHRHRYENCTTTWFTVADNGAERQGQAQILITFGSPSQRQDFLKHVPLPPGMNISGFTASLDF

B1: BPV1 E2 binding sites (E2BS) (dsDNA)
DNA 1: ACCGTTGCCGGTCGGATCTGTACCGTTGCCGGTCGGATCTGTACCGTTGCCGGTCGGATCTGTACCGTTGCCGGTCGGATCTGTACCGTTGCCGGTCGGATCTGTACCGTTGCCGGTCGGATCTGTACCGTTGCCGGTCGGATCTGTACCGTTGCCGGTCGGATCTGTACCGTTGCCGGTC
DNA 2: GACCGGCAACGGTACAGATCCGACCGGCAACGGTACAGATCCGACCGGCAACGGTACAGATCCGACCGGCAACGGTACAGATCCGACCGGCAACGGTACAGATCCGACCGGCAACGGTACAGATCCGACCGGCAACGGTACAGATCCGACCGGCAACGGTACAGATCCGACCGGCAACGGT
Work on B1 yielded a binding signal of roughly 3.5 fold.
